According to IntAct's records for PubMed 18614016:

B1: Tyrosine-protein kinase CSK (Homo sapiens), P41240 (parent)
chain: MSAIQAAWPSGTECIAKYNFHGTAEQDLPFCKGDVLTIVAVTKDPNWYKAKNKVGREGIIPANYVQKREGVKAGTKLSLMPWFHGKITREQAERLLYPPETGLFLVRESTNYPGDYTLCVSCDGKVEHYRIMYHASKLSIDEEVYFENLMQLVEHYTSDADGLCTRLIKPKVMEGTVAAQDEFYRSGWALNMKELKLLQTIGKGEFGDVMLGDYRGNKVAVKCIKNDATAQAFLAEASVMTQLRHSNLVQLLGVIVEEKGGLYIVTEYMAKGSLVDYLRSRGRSVLGGDCLLKFSLDVCEAMEYLEGNNFVHRDLAARNVLVSEDNVAKVSDFGLTKEASSTQDTGKLPVKWTAPEALREKKFSTKSDVWSFGILLWEIYSFGRVPYPRIPLKDVVPRVEKGYKMDAPDGCPPAVYEVMKNCWHLDAAMRPSFLQLREQLEHIKTHELHL

Variants of: B1
Conditions: with src_chick SRC

Effect of a mutation on the interaction, decreasing interaction:
R384A
R389A
R283A
R281A
R279A
